From the DeepSol protein solubility set come the findings set out here.

The series in a line: soluble on expression in E. coli; label from the status in PepcDB or PDB records.
Turning to “MFEKVRKIIAEQLGIEEDEITMESSFIDDLGADSLDIVELIMALEEEFDLEIPDSEAEKITTVGDVVEYIKNNS”, the “soluble on expression in E. coli” value is reported as “not soluble”.

As to “MSLHSPGKAFRAALTKENPLQIVGTINANHALLAQRAGYQAIYLSGGGVAAGSLGLPDLGISTLDDVLTDIRRITDVCSLPLLVDADIGFGSSAFNVARTVKSMIKAGAAGLHIEDQVGAKRCGHRPNKAIVSKEEMVDRIRAAVDAKTDPDFVIMARTDALAVEGLDAAIERAQAYVEAGAEMLFPEAITELAMYRQFADAVQVPILANITEFGATPLFTTDELRSAHVAMALYPLSAFRAMNRAAEHVYNVLRQEGTQKSVIDTMQTRNELYESINYYQYEEKLDNLFARSQVK”, the “soluble on expression in E. coli” value is given as “soluble”. The entry for “MSLDEGRTPILGEHPRPTMVRDNCTMLNGWWDYAIVSIPEDETAPKWRKTAAMLTRDEAVRAVKETAIPQTFDGKILVPFSPESALSGVHQTIYPDNLLWYRTVVHPVTLGGEETVRQIGDANRLILHFEAVDYVCACYVNGQLAGTHVGGYLPFDVDISAFIDPDDAFEIALCVYDPNDSGTQLRGKQKIEREGIWYTAQSGIWQSVWLEIVPEAYLRTLTLKGASDGKLFVRAEIGGDKPNAKLHIVVTDPADGTVVADETLPAGVRKVRAEIATAAEHLWSPADPYLYDVRAELRYGSAKPAETAGDAAVVQSQPMDVVSSYCAFRSVEIKPDTKGVARFHLNGKPLFVKGVLDQGYWPDGLMTAPDDEALTHDITAMKNAGFNMLRKHIKIESARWYYHCDRLGMLVWQDAVSGGGTDGEYNAWTTNRKPTLIRSTWNKFRDDTAKHFTALGADDPIYRRDWSRTCDAMVHMLGGHPSIVTWTLFNEGWGQFDACDATERIHALDPTRPIDATSGWYDQHCGDYHSVHNYFRPLEIYPDKGPLRGYVAEFEKKHRRRRRAAHYVVLPVARHGVRAFVISEFGGLAQLVPEHAAVSRAYGYGEYDSIDDWRAAVRSVLASAAALESRGLAGYVYTQVSDVEEELNGLLTYDRRVDKFAEEGHHHHHH” is “not soluble”.

“MSVVSERDVDEYSKQKPETYVLQVSERERKEKYERKNPPIPLDNEYNYQDVTPSPFPFHIDAPSLVFMGRLGEEPISAHFTLTNRTCKPFWFKIKVSSRELFKVRPTNGKLENSERVVIRVIFYPNVRVPKPFCEYLHVYALFAGLGDRTAYEAFNRLDRQRTLPPKRLFTEFVWHPNIGMTQAYENGKLMEMMRAKQKLLDYRKDENDKIKTFQVDFNNVIFDHRNRVLDRMLKANVVEKEKLLYMPTPNLNLYMQNLRNQKNRSKLAVLLERRGDAFKGVQNLYAEEVLAKRTGDKMFEKYKKKKGTKGYQSLDAKLYRPVKVVRNTKNKKKKGKK”: the “soluble on expression in E. coli” value is “not soluble”. To “VSQLLPSDFNLRYPANSTSIVPISDLSITQIEADPNDSTIAVLTIQVIIRVNSFNNSLNFGIATYTQKIPGFLNQDSGRIALGFRDLALNANDLIIFNGIKGDTGVDAAIQSGKDNFTINSPIGFENIIFSIQDFDSTSTNASRGELGFVIKGEFNGQILLSSTINQKIVVSEFLAENLAILNAATEFGVILKPEFNLNSNRPTASQASKDNFSINFSQAPDPR” belongs “soluble”; to “MTEKKERIDVHAYLAEFDDIPGTRVFTAQRARKGYNLNQFAMSLMKAENRERFKADESAYLDEWNLTPAAKAAVLARDYNAMIDEGGNVYFLSKLFSTDGKSFQFAAGSMTGMTQEEYAQMMIDGGRSPAGVRSIKGGY”, “soluble”; to “MAHHHHHHSLVDVRQSIHSEHAKTLDTQALRREFLIENIFVADEYTMVYSHIDRIIVGGIMPVSHPVEIGGEVGKQLGVSRLLDRRELGVINIGGAGAIIVDGQRHDIGHRDALYIGKGAKELVFVSNEASRPAKFYYNCAPAHTAYPTKKVSPADVAPVTLGDNLTSNRRTINKYFVPDVLETCQLSMGLTELAPGNLWNTMPCHTHERRMEVYLYFNMEEDSCVFHMMGQPQETRHIVMRNEQAVISPSWSIHSGVGTKAYTFIWGMVGENQVFDDMDHVAVQDLREG”, “soluble”. As to “MTERKPEVIITYCTQCQWLLRAAWLAQELLSTFSDDLGKVSLEPATGGAFRITCDGVQIWERKADGGFPEAKVLKQRVRDQIDPERDLGHNDRTQLEHHHHHH”, the “soluble on expression in E. coli” value is given as “soluble”. To “AVSLDRTRAVFDGSEKSMTLDISNDNKQLPYLAQAWIENENQEKIITGPVIATPPVQRLEPGAKSMVRLSTTPDISKLPQDRESLFYFNLREIPPRSEKANVLQIALQTKIKLFYRPAAIKTRPNEVWQDQLILNKVSGGYRIENPTPYYVTVIGLGGSEKQAEEGEFETVMLSPRSEQTVKSANYNTPYLSYINDYGGRPVLSFICNGSRCSVKKEKHHHHHH” belongs “soluble”; to “MKIKHLPFDQNRNGWSADLVDKPNYPQQRGKTTADWLVIGAGYAGIAFAQRLAEQRPDKHIILLDAGEIGDNASGRNSGFVIDLPHNIGSSTAELEKAAAYRRLLQSGVAHLKEKVDRHAIACDWSVAGKYHCAVSSTFNGLIDTYVRELNGLGEPYQVVEKDELARRLGTSFYQRAVYTPNCILLNPAALVIGLVASLPKNVTVYAHSPALNIETGSRIRVETPYGEIQADKLMMAINGAARGLPLFNGRVFAVTTFATLTEPLNAEQTARMGDMPDWGLTPVNALASATLRYTRDHRFLIREHVKFAPELVNSAVETGRHARRHAAIFARMFPQLSDVKMAHTWSGLISVTRNGAPIWGQLSDNVFASAGCNGAGLSKQTAAGHILADLALGEDNPLISDMQSLGQANYLPPRPFLDVGVNGYLTSERWKARSERLEHHHHHH”, “not soluble”. The entry for “SLVRNGRIAFAGPESDLPDDLSTADETTDCGGRWITPALIDCHTHLVFGGNRAMEFEMRLNGATYEEIAKAGGGIVSSVRDTRALSDEVLVAQALPRLDTLLSEGVSTIEIKSGYGLDIETELKMLRVARRLETLRPVRIVTSYLAAHATPADYKGRNADYITDVVLPGLEKAHAEGLADAVDGFCEGIAFSVKEIDRVFAAAQQRGLPVKLHAEQLSNLGGAELAASYNALSADHLEYLDETGAKALAKAGTVAVLLPGAFYALREKQLPPVQALRDAGAEIALATDCNPGTSPLTSLLLTMNMGATLFRMTVEECLTATTRNAAKALGLLAETGTLEAGKSADFAIWDIERPAELVYRIGFNPLHARIFKGQKVSP” is “not soluble”. The entry for “MSLKTLMAVGLAAVMSIPFAANAADYVIDTKGAHASINFKVNHLGYSYIKGRFNKFDGEFSYDPANIAASSVVVNVDTRSLDSNHAERDKHIRSADFIDASKYSTATFKSTEVVDKGNGQLEVKGDLTLHGQTKPIVINAEFIGAGQDPWGGQRSGFAGTTRLELKDFGIQVMGASSYVDMELHVEGVQKEGGSHHHHHH” is “soluble”; for “MGHHHHHHHHHHSSGHIDDDDKHMKNKKDKGLLSGKLTPAQSKNPAKNELYLVEGDSAGGSAKQGRDRKFQAILPLRGKVINTAKAKMADILKNEEINTMIYTIGAGVGADFSIEDANYDKIIIMTDADTDGAHIQTLLLTFFYRYMRPLVEAGHVYIALPPLYKMSKGKGKKEEVAYAWTDGELEELRKQFGKGATLQRYKGLGEMNADQLWETTMNPETRTLIRVTIEDLARAERRVNVLMGDKVEPRRKWIEDNVKFTLEEATVF” it is “soluble”. For the sequence “MSLKFMYSALLGNPVEHSISDELFEYLNHNIGVLDEYKHKKILVDSVCLEDKIKHLINDPKCIGLNITLPYKREVMRYIDNLDRVAEITGSVNNIYKSGNIITGTNTDWKGIYNTLVFFNISHITKCCVLGTGGTARAAIFALQKLQISPTVVYREPISENTRSLIKSFPDLKYITYKELADQQILNDMEIIINTTPVGMINYEESLPINFDHLDNVNYKDKYFMDVVFNPLHTKLHEYFGKKGAKIIDGLWVLIFQGIEAFSLWSDKINDGKYFFSEGHHHHHH”, the “soluble on expression in E. coli” value was “not soluble”. As for “MMNKNKKLMVMAGGTGGHVFPGLAVAKQLQQQGWQIRWLGTADRMEAELVPKHGIEIDFIQVKGLRGQGLMRLLKAPFQIVNAILQARRHLLTYQPDAVLGMGGYVSGPGGIAAWLLGIPVVLHEQNAVAGLTNQWLAKIARRVFQAFPGAFADASVVGNPVRQDVVQLAAPEQRFATRNGAIRILVMGGSQGARILNQTLPAVMAALGEGYEIRHQAGKNSQQDVAEAYAAAGVESAQVTEFIDDVADAYAWADLLICRSGALTVSEVSAAGVGAIFIPFMHKDRQQALNADHLVACGAAKMIEQPELSVEKLTQMVRELDRAQLLSMAQKARQAAKLDADKVVAQAIIAITE”, the “soluble on expression in E. coli” value is “not soluble”. The entry for “MSRTTPYRLDDQIGFILRQANQRYAALFANGIGNGLTPTQWAALVRLGETGPCPQNQLGRLTAMDAATIKGVVERLDKRGLIQRSADPDDGRRLLVSLSPAGRAELEAGLAAAREINRQALAPLSLQEQETLRGLLARLI” is “soluble”; for “MKKQLCMIALVGATAFGTTGTSWSLDGPPPPEPPPMGKGQEHFLERMASVLKLTDAQQAQIEALISTDAEQNAPLHRQLAENERALREATTAASLDEATVRALAATKGNLMTEMIVSRAKLRNAINAILTAEQRELADRLDPLKYGPPRPRPDRPGMELEHHHHHH” it is “soluble”; for “MGGSHHHHHHGMASALTDQTYCDRLVQDTPFLTGHGRLSEQQVDRIILQLNRYYPQILTNKEAEKFRNPKASLRVRLCDLLSHLQRSGERDCQEFYRALYIHAQPLHSRLPSRHALQNSDCTELDSGSQSGELSNRGPMSFLAGLGLAVGLALLLYCYPPDPKGLPGTRRVLGFSPVIIDRHVSRYLLAFLADDLGGL” it is “not soluble”. To “MGSDKIHHHHHHMNRNNFSHEIIEPIDNLDVNFKLFDDSGSYVANHWHNSLEIIYITSGDLQINMEGYTYNLKANECMFINSGIIHSTRCIYQNTSILLQVPLSFLNKYIPDFKNCYFDFKVNANDNNYKKNSSKVKLILENMREIKLSSPPAANLLFTSLLFELLFELYTNFKISVGNKNMKKTVLDLSKFEPVLEYTKINYKMPISINKIAKVAHLQPEYFCRKFKQYMGQTYLEYLNDVRISHIYKDLINTNDTLCSILEAHGFTNTKLFYRIFKEKFKCTPKHIRKKST” belongs “not soluble”; to “MGSDKIHHHHHHMHYDHVLDKRMLRRSFEQAAAGYDQSAVLQREICDRMLSRLEYIKYVPARILDAGSGTGYGTRKLIERYPAAEIMPMDIALTMHRCARMAISEQIPGWQRWLPFRRHWPRDYICADIEQLPLGEASIGMIWSNLAIQWCNDLRQTFAEAYRVLENGGLLMFSTFGPDTLKELRQAFKSADSFSHVNRFTDMHDIGDMLVNCGFSLPVMDMEYITLTYEDVRGVMQDLKAIGARNVTQGRRRGLTGKAAWQQVIERYEALRQDGRLPATYEVVYGHAWKPESRQVQLKPETRRKLGLEP”, “not soluble”; to “MNDELKNKSGKVKVMYVRSDDDSDKRTHNPRTGKGGGRPAKSRTDGGRRPARDERNNQSRDRKHETSPWRTVSRAPGDETPEKVDHGGISGKSFIDPEVLRRQRAEETRVYGENACQALFQSRPDAIVRAWFIQSVTPRFKEALRWMAANRKAYHVVDEAELAKASGTEHHGGVCFLIKKRNGTTVKQWVKQAADQDCVLALEDVANPHNLGGMMRSCAHFGVKGVVVQDAALLESGAAIRTAEGGAEHVQPITGESIVDVLDDFRQAGYTVVTTSSDRGQALFSTTLPEKMVLVLGREYDYLPEAAREPDDLCVKINGTGNVESLNVSVATGVLLAEWWRQNKA”, “not soluble”.
